{
  "source": "patent US20230398228A1",
  "about": "“ERIBULIN-BASED ANTIBODY-DRUG CONJUGATES AND METHODS OF USE” (EISAI R&D MANAGEMENT CO., LTD., priority 2016, published 2023)",
  "key": {"SJSA-1 cells": {"tested_on": "SJSA-1 cells", "assay": "Crystal Violet cytotoxicity assay (Examples 1 and 2), SJSA-1", "method": "(§1) Typically, test reagents were serial diluted 1:4 in 2 mL deep-well dilution plates, starting at 1 μM (10 dilutions total). 100 μL of diluted samples were added to the cell plates (starting concentration of test samples at 500 nM). […] Medium was discarded, plates were washed once with 200 μL DPBS, stained with 50 μL of 0.2% Crystal Violet solution at room temperature for 15 min, and then washed extensively with tap water. Plates were air-dried, and Crystal Violet was dissolved with 200 μL of 1% SDS solution. Plates were read at 570 nm. Data was analyzed using GraphPad Prism 6. Assays were performed using a seeding density of 1,000 cells per well and compound exposure was for a total of 5 days. When shorter-term exposure was desired, medium containing cytotoxic agents was removed after 4 hours and replaced with fresh growth medium prior to 5-day incubation. For OVCAR3, CaOV3, and NCI-H2110, cells were seeded at 3,000 cells/well and incubated for 5 days with ADC.\nIn vitro potency of prepared ADCs was assessed using a Crystal Violet assay as detailed in section 1.4.1.\n(§2) SJSA-1 cells are a human osteosarcoma tumor cell line that are negative for folate receptor alpha.\n(§3) Typically, test reagents were serially-diluted 1:4 in 2 mL deep-well dilution plates, starting at 1 μM (10 dilutions total). 100 μL of diluted samples were added to the cell plates (starting concentration of test samples at 100 nM). […] Medium was discarded, plates were washed once with 200 μL DPBS, stained with 50 μL of 0.2% Crystal Violet solution at room temperature for 15 min, and then washed extensively with tap water. Plates were air-dried, and Crystal Violet was dissolved with 200 μL of 1% SDS solution. Plates were read at 570 nm. Data was analyzed using GraphPad Prism 6."}, "NCI-H2110 cells": {"tested_on": "NCI-H2110 cells", "conditions": "Example 1", "method": "as §1, §2, §3"}, "OVCAR3 cells": {"tested_on": "OVCAR3 cells", "assay": "Crystal Violet cytotoxicity assay (Examples 1 and 2), OVCAR3", "conditions": "Example 1", "method": "as §1, §2\nTypically, test reagents were serially-diluted 1:4 in 2 mL deep-well dilution plates, starting at 1 μM (10 dilutions total). 100 μL of diluted samples were added to the cell plates (starting concentration of test samples at 100 nM). […] Plates were read at 570 nm. Data was analyzed using GraphPad Prism 6."}, "[1]": {"assay": "Maximum tolerated dose of MORAb-202 in CD-1 mice", "type": "in vivo, mouse", "conditions": "CD-1 mice", "method": "Body weight was measured prior to dose on the dosing day, 24 hours post dose, and three times a week thereafter. […] Two weeks after dosing, the terminal body weight was measured and recorded. Euthanized mice at the end of the study (and if any mouse euthanized or found dead during the study) were processed for necropsy. Organs were examined for signs of tissue damage."}},
  "note": "Where “and” joins values, the source holds several entries; their conditions need not be identical. Identical values can stand only once.",
  "data": [
    {"substance": "MORAb-003-maleimido-PEG2-Val-Cit-pAB-eribulin [MORAb-202]", "values": [
      {"measurement": "killing of FR-negative SJSA-1 cells (off-target), in words", "setting": "SJSA-1 cells; Example 1 screening", "result": "little killing"},
      {"measurement": "IC50", "setting": "SJSA-1 cells; read-out: Cytotoxicity (IC50) SJSA-1, SJSA-1 cells, mean of replicate experiments, where performed", "result": "> 100", "unit": "nM"},
      {"measurement": "EC50", "setting": "SJSA-1 cells; read-out: cytotoxicity (EC50) on SJSA-1 cells, Example 2", "result": "> 100", "unit": "nM"},
      {"measurement": "cytotoxicity on NCI-H2110 cells, in words", "setting": "NCI-H2110 cells", "result": "potent cytotoxicity"},
      {"measurement": "IC50", "setting": "NCI-H2110 cells; read-out: IC50 on NCI-H2110", "result": 0.73, "unit": "nM"},
      {"measurement": "cytotoxicity on OVCAR3 cells, in words", "setting": "OVCAR3 cells", "result": "potent cytotoxicity"},
      {"measurement": "Body weight of individual mice", "setting": "[1]; 10 mg/kg single bolus i.v., day 0 post Rx", "result": "22.60 g and 23.50 g and 21.80 g"},
      {"measurement": "Body weight, group mean", "setting": "[1]; 10 mg/kg single bolus i.v., day 0 post injections", "result": 22.6, "unit": "g"},
      {"measurement": "Body weight of individual mice", "setting": "[1]; 10 mg/kg single bolus i.v., day 1 post Rx", "result": "22.80 g and 23.80 g"},
      {"measurement": "Body weight, group mean", "setting": "[1]; 10 mg/kg single bolus i.v., day 1 post injections", "result": 23.2, "unit": "g"},
      {"measurement": "Body weight of individual mice", "setting": "[1]; 10 mg/kg single bolus i.v., day 2 post Rx", "result": "23.30 g and 24.00 g and 22.90 g"},
      {"measurement": "Body weight, group mean", "setting": "[1]; 10 mg/kg single bolus i.v., day 2 post injections", "result": 25.4, "unit": "g"},
      {"measurement": "Body weight of individual mice", "setting": "[1]; 10 mg/kg single bolus i.v., day 4 post Rx", "result": "23.30 g (2×) and 23.90 g"},
      {"measurement": "Body weight, group mean", "setting": "[1]; 10 mg/kg single bolus i.v., day 4 post injections", "result": 23.5, "unit": "g"},
      {"measurement": "Body weight of individual mice", "setting": "[1]; 10 mg/kg single bolus i.v., day 7 post Rx", "result": "24.80 g and 25.20 g and 24.90 g"},
      {"measurement": "Body weight, group mean", "setting": "[1]; 10 mg/kg single bolus i.v., day 7 post injections", "result": 25.0, "unit": "g"},
      {"measurement": "Body weight of individual mice", "setting": "[1]; 10 mg/kg single bolus i.v., day 9 post Rx", "result": "24.90 g and 25.30 g and 25.00 g"},
      {"measurement": "Body weight, group mean", "setting": "[1]; 10 mg/kg single bolus i.v., day 9 post injections", "result": 25.1, "unit": "g"},
      {"measurement": "Body weight of individual mice", "setting": "[1]; 10 mg/kg single bolus i.v., day 11 post Rx", "result": "24.30 g (2×) and 25.10 g"},
      {"measurement": "Body weight, group mean", "setting": "[1]; 10 mg/kg single bolus i.v., day 11 post injections", "result": 24.6, "unit": "g"},
      {"measurement": "Body weight of individual mice", "setting": "[1]; 10 mg/kg single bolus i.v., day 14 post Rx", "result": "25.80 g and 25.60 g and 25.70 g"},
      {"measurement": "Body weight, group mean", "setting": "[1]; 10 mg/kg single bolus i.v., day 14 post injections", "result": 25.7, "unit": "g"},
      {"measurement": "Body weight of individual mice", "setting": "[1]; 20 mg/kg single bolus i.v., day 0 post Rx", "result": "27.40 g and 26.20 g and 21.00 g"},
      {"measurement": "Body weight, group mean", "setting": "[1]; 20 mg/kg single bolus i.v., day 0 post injections", "result": 24.9, "unit": "g"},
      {"measurement": "Body weight of individual mice", "setting": "[1]; 20 mg/kg single bolus i.v., day 1 post Rx", "result": "28.80 g and 27.50 g and 21.40 g"},
      {"measurement": "Body weight, group mean", "setting": "[1]; 20 mg/kg single bolus i.v., day 1 post injections", "result": 25.9, "unit": "g"},
      {"measurement": "Body weight of individual mice", "setting": "[1]; 20 mg/kg single bolus i.v., day 2 post Rx", "result": "29.30 g and 29.00 g and 22.10 g"},
      {"measurement": "Body weight, group mean", "setting": "[1]; 20 mg/kg single bolus i.v., day 2 post injections", "result": 26.8, "unit": "g"},
      {"measurement": "Body weight of individual mice", "setting": "[1]; 20 mg/kg single bolus i.v., day 4 post Rx", "result": "30.20 g and 31.00 g"},
      {"measurement": "Body weight, group mean", "setting": "[1]; 20 mg/kg single bolus i.v., day 4 post injections", "result": 28.1, "unit": "g"},
      {"measurement": "Body weight of individual mice", "setting": "[1]; 20 mg/kg single bolus i.v., day 7 post Rx", "result": "29.60 g and 32.00 g and 24.00 g"},
      {"measurement": "Body weight, group mean", "setting": "[1]; 20 mg/kg single bolus i.v., day 7 post injections", "result": 28.5, "unit": "g"},
      {"measurement": "Body weight of individual mice", "setting": "[1]; 20 mg/kg single bolus i.v., day 9 post Rx", "result": "30.80 g and 31.70 g and 23.40 g"},
      {"measurement": "Body weight, group mean", "setting": "[1]; 20 mg/kg single bolus i.v., day 9 post injections", "result": 28.6, "unit": "g"},
      {"measurement": "Body weight of individual mice", "setting": "[1]; 20 mg/kg single bolus i.v., day 11 post Rx", "result": "31.00 g and 32.40 g and 23.80 g"},
      {"measurement": "Body weight, group mean", "setting": "[1]; 20 mg/kg single bolus i.v., day 11 post injections", "result": 29.1, "unit": "g"},
      {"measurement": "Body weight of individual mice", "setting": "[1]; 20 mg/kg single bolus i.v., day 14 post Rx", "result": "33.20 g and 32.40 g and 24.10 g"},
      {"measurement": "Body weight, group mean", "setting": "[1]; 20 mg/kg single bolus i.v., day 14 post injections", "result": 29.9, "unit": "g"},
      {"measurement": "Body weight of individual mice", "setting": "[1]; 40 mg/kg single bolus i.v., day 0 post Rx", "result": "23.80 g and 23.30 g and 21.70 g"},
      {"measurement": "Body weight, group mean", "setting": "[1]; 40 mg/kg single bolus i.v., day 0 post injections", "result": 22.9, "unit": "g"},
      {"measurement": "Body weight of individual mice", "setting": "[1]; 40 mg/kg single bolus i.v., day 1 post Rx", "result": "23.60 g and 23.50 g and 21.60 g"},
      {"measurement": "Body weight, group mean", "setting": "[1]; 40 mg/kg single bolus i.v., day 1 post injections", "result": 22.9, "unit": "g"},
      {"measurement": "Body weight of individual mice", "setting": "[1]; 40 mg/kg single bolus i.v., day 2 post Rx", "result": "23.60 g and 24.60 g and 21.80 g"},
      {"measurement": "Body weight, group mean", "setting": "[1]; 40 mg/kg single bolus i.v., day 2 post injections", "result": 23.3, "unit": "g"}
    ]}
  ]
}
